One block for each binder: values may come before it.
What was measured:
[1] = target: T1, recombinant human LPHN2 lectin-olfactomedin-like domain, residues F26-P394 (human, UniProt O95490 26-394); assay: solid-phase binding (ELISA)
T1 chain: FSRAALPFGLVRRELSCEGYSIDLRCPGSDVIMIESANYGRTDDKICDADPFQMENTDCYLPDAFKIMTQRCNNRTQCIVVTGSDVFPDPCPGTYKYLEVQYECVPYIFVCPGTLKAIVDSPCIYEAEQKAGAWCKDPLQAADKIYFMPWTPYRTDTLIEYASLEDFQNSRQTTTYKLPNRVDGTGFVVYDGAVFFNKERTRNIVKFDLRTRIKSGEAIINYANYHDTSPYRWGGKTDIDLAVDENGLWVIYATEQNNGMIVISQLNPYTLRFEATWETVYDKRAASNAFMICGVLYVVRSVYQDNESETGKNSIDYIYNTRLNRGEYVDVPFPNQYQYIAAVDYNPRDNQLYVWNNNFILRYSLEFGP

[2] = target: LPHN2 Lec; assay: solid-phase binding (ELISA)

Kd [1]: 430 nM
B1: deglycosylated LRG1 (LRG1 treated with PNGase F) (ligand)
chain: VTLSPKDCQVFRSDHGSSISCQPPAEIPGYLPADTVHLAVEFFNLTHLPANLLQGASKLQELHLSSNGLESLSPEFLRPVPQLRVLDLTRNALTGLPPGLFQASATLDTLVLKENQLEVLEVSWLHGLKALGHLDLSGNRLRKLPPGLLANFTLLRTLDLGENQLETLPPDLLRGPLQLERLHLEGNKLQVLGKDLLLPQPDLRYLFLNGNKLARVAAGAFQGLRQLDMLDLSNNSLASVPEGLWASLGQPNWDMRDGFDISGNPWICDQNLSDLYRWLQAQKDKMFSQNDTRCAGPEAVKGQTLLAVAKSQ
modifications: N-linked glycans removed with PNGase F (sites N79, N186, N269, N325 on SEQ ID NO: 1)

Kd [1]: 890 nM
B2: recombinant human LRG1 (leucine-rich alpha-2 glycoprotein 1), residues V36-Q347, untagged, glycosylated (ligand)
chain: B1 chain
modifications: glycosyl groups at T37 (O-linked), N79, N186, N269 and N325 (N-linked), numbered on SEQ ID NO: 1

Kd [2]: 1100 nM
B3: DG-LRG1 (ligand)
chain: B1 chain
modifications: N-linked glycans removed with PNGase F (sites N79, N186, N269, N325 on SEQ ID NO: 1)

Source: patent US20240083959A1 (published 2024)
